Among the data in article PMC3664699 are Kd and stoichiometry N values, retold here.

A word on the Kd: it is the constant that tells how readily two partners part at equilibrium. Low readings indicate tighter binding, high ones weaker binding. As a reminder, the stoichiometry N is the number of molecules, sites or subunits per partner or assembly.

Test [1] concerns the target EndoH-DyLight (GluA2 ATD, EndoH-digested, DyLight-labeled). As to the kind of experiment: fluorescence polarisation. On the technique in general: In fluorescence polarisation assays a small probe gives low polarisation when free and higher when bound to something large.
In test [2] the target is EndoH-digested GluA2S. Nature of the test: AUC.
The target of test [3] is EndoH-digested GluA2S. Nature of the test: AUC. The source holds these as a separate data set.
The target in test [4] is EndoH-digested GluA2S. As to the kind of experiment: AUC. The source holds these as a separate data set.
Test [5] concerns the target EndoH-digested GluA2S. As to the kind of experiment: AUC. The source holds these as a separate data set.
The target of test [6] is EndoH-digested GluA2S. As to the kind of experiment: AUC. This is another data set of the same source.
Test [7] has as its target EndoH-digested, FAM-labeled GluA2S. As to the kind of experiment: AUC.
Test [8] has the same target. As to the kind of experiment: AUC. The source holds these as a separate data set.
The target is the same in test [9]. Nature of the test: AUC. The source holds these as a separate data set.
For another test, the target named is GluA2 ATD, GnTI−. Nature of the test: AUC.
Another test has as its target GluA2L. As to the kind of experiment: AUC.
In test [10] the target is GluA2S, GluA2 ATD with complex glycosylation (293T). Nature of the test: AUC.
For test [11] the target is unchanged. As to the kind of experiment: AUC. This is another data set of the same source.
The target in the next test is GluA2S-FAM. As to the kind of experiment: AUC.
For test [12], the target named is GluA3 (AMPA receptor amino-terminal domain). As to the kind of experiment: AUC.

Several values for one entry are separate records, joined by “and”; a condition that tells them apart may be missing. Equal values may be shown once. Read-outs that look alike come from different tables or passages of the source.

Sequence of EndoH-DyLight (GluA2 ATD, EndoH-digested, DyLight-labeled) (P19491 22-883): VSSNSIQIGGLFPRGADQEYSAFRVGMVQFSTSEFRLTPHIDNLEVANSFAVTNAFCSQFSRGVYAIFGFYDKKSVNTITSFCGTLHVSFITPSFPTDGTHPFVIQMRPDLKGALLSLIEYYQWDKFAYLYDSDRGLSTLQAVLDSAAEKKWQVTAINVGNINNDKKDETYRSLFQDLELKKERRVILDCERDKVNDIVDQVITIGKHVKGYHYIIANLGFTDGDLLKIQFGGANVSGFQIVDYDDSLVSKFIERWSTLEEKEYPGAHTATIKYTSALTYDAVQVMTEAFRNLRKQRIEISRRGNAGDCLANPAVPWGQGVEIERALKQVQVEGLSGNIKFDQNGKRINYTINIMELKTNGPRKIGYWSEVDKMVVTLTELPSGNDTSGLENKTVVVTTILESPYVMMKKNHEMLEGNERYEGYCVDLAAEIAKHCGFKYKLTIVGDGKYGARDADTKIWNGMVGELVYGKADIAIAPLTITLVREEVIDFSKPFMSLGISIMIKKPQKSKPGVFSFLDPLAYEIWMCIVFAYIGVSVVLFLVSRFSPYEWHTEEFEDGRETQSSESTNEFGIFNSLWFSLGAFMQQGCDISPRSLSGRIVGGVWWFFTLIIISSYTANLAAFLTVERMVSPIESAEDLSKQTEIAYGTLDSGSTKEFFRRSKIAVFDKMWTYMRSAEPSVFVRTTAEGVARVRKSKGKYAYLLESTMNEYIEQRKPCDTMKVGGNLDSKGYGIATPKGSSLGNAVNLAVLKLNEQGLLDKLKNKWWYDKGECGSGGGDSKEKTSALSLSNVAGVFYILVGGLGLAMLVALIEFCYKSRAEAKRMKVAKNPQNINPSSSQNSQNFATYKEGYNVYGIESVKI
Sequence of GluA2S, GluA2 ATD with complex glycosylation (293T) (P19491 22-883, one chain of several): as the sequence (P19491 22-883) above
Sequence of EndoH-digested GluA2S (P19491 22-883): as above
Sequence of EndoH-digested, FAM-labeled GluA2S (P19491 22-883): as above
Sequence of GluA3 (AMPA receptor amino-terminal domain) (P19492 23-888): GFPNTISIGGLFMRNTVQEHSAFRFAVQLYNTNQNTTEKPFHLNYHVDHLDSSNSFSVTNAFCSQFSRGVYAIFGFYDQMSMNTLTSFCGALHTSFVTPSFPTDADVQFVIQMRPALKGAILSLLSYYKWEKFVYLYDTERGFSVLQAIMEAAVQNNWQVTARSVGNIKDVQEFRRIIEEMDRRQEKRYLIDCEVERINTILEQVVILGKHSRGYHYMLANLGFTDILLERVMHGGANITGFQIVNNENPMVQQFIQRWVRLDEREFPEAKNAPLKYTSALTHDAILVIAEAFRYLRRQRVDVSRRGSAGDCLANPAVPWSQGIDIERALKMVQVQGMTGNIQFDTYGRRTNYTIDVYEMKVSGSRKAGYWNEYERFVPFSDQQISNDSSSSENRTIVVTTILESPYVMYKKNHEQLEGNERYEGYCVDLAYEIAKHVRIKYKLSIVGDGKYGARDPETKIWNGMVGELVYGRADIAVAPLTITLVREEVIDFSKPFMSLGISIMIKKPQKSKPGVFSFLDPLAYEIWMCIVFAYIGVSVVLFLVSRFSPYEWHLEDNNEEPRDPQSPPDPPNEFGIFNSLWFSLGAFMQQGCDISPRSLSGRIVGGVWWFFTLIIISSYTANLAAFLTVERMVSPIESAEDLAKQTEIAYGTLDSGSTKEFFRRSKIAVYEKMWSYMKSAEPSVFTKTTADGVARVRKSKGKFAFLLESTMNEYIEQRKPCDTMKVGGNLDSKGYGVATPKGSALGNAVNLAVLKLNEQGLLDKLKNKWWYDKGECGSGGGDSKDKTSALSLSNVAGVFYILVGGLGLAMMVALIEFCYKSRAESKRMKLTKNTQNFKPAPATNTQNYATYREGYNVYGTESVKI
Sequence of GluA2L (P19491 22-883): as the sequence (P19491 22-883) above
Sequence of GluA2S-FAM (P19491 22-883): as above
Sequence of GluA2 ATD, GnTI− (P19491 22-883): as above

On to “EndoH-DyLight (GluA2 ATD, EndoH-digested, DyLight-labeled) (domain or fragment)”, for which the Kd in test [1] was 10.8 nM and 11.3 nM and 8.43 nM.

Take “EndoH-digested GluA2S (domain or fragment)”: the Kd is 17 nM with EndoH-digested GluA2S [2]; 12 nM and 8.3 nM and 10 nM in the test with EndoH-digested GluA2S [3]; 160 nM and 284 nM with EndoH-digested GluA2S [4]; 30 nM with EndoH-digested GluA2S [5]; 12 nM with EndoH-digested GluA2S [6]. In the test with EndoH-digested GluA2S [4], this substance gave a stoichiometry N of 2.

Consider “EndoH-digested, FAM-labeled GluA2S (domain or fragment)”, for which the Kd in test [7] is 2.5 nM; in [8] it was 10 nM; in test [9] it was 13 nM.

Regarding GluA2 ATD, GnTI− (domain or fragment), the Kd in the test with GluA2 ATD, GnTI− was found to be 11 nM.

Substance GluA2L (domain or fragment) showed a Kd with GluA2L of 5.5 nM.

The substance “GluA2S, GluA2 ATD with complex glycosylation (293T) (domain or fragment)” returned a Kd in test [10] of 8.3 nM. Besides, in [11], the Kd stood at 6 nM and the stoichiometry N came to 2.

GluA2S-FAM (domain or fragment) showed a Kd in the test with GluA2S-FAM of 14.9 nM.

In [12], “GluA3 (AMPA receptor amino-terminal domain) (domain or fragment)” gave a Kd of 5600 nM and a stoichiometry N of 2.
